# Residue numbers refer to the chain shown, from its start.
# B1: FcTregV13 (other)
# chain: DKTHTCPPCPAPELLGGPSVFLFPPKPKDTLMISRTPEVTCVVVDVSHEDPEVKFNWYVDGVEVHNAKTKPREEQYQSTYRVVSVLTVLHQDWLNGKEYKCKVSNKALPAPIEKTISKAKGTDFTLTISSLQPEDDELTKNQVSLTCLVKGFYPSDIAVEWESNGQPENNYKTTPPVLDSDGSFFLYSKLTVDKSRWQQGNVFSCSVMHEALHNHYTQKSLSLSPGKKTLYLQMNSLRAEDTAKH
# notes: TCP on the human IgG1 Fc-part: Treg289 in frame A, Treg084 in frame C, Treg088x C-terminal; also called Construct V13
# B2: FcTregV34 (other)
# chain: DKTHTCPPCPAPELLGGPSVFLFPPKPKDTLMISRTPEVTCVVVDVSHEDPEVKFNWYVDGVEVHNAKTKPREEQYNSTYRVVSVLTVLHQDWLNGKEYKCKVSNKALPAPIEKTISKAKGQPREPQVYTLPPSRDELTKNQVSLTCLVKGFYPSDIAVEWESNGQPENNYKTTPPEEQYQSTYRVVSVLTVLHQDWQQGNVFSCSVMHEALHNHYTQKSLSLSPGKKTLYLQMNSLRAEDTAKH
# notes: TCP on the human IgG1 Fc-part: Treg289 in frame B, Treg088x C-terminal; also called Construct V34
# B3: FcTregV23 (other)
# chain: DKTHTCPPCPAPELLGGPSVFLFPPKPKDTLMISRTPEVTCVVVDVSHEDPEVKFNWYVDGVEVHNAKTKPREEQYNSTYRVGTDFTLTISSLQPEDEYKCKVSNKALPAPIEKTISKAKGQPREPQVYTLPPSRDELTKNQVSLTCLVKGFYPSDIAVEWESNGQPENNYKTTPPVLDSDGSFFLYSKLTVDKSRWQQGNVFSCSVMHEALHNHYTQKSLSLSPGK
# notes: Human IgG1 Fc-part with Treg084 in frame A; also called Construct V23
# B4: FcTregV32 (other)
# chain: DKTHTCPPCPAPELLGGPSVFLFPPKPKDTLMISRTPEVTCVVVDVSHEDPEVKFNWYVDGVEVHNAKTKPREEQYGGLVQPGGSLRLSCAASGFTFEYKCKVSNKALPAPIEKTISKAKGTDFTLTISSLQPEDRDELTKNQVSLTCLVKGFYPSDIAVEWESNGQPENNYKTTGGLVQPGGSLRLSCAASGFTFRWQQGNVFSCSVMHEALHNHYTQKSLSLSPGKKTLYLQMNSLRAEDTAKH
# notes: TCP on the human IgG1 Fc-part: Treg009A in frame A, Treg084 in frame C, Treg009A in frame B, Treg088x C-terminal; also called Construct V32
# B5: FcTregV20 (other)
# chain: DKTHTCPPCPAPELLGGPSVFLFPPKPKDTLMISRTPEVTCVVVDVSHEDPEVKFNWYVDGVEVHNAKTKPREEQYNSTYRVVSVLTVLHQDWLNGKEYKCKVSNKALPAPIEKTISKAGGLVQPGGSLRLSCAASGFTFNQVSLTCLVKGFYPSDIAVEWESNGQPENNYKTTPPVLDSDGSKTLYLQMNSLRAEDTAKHVFSCSVMHEALHNHYTQKSLSLSPGK
# notes: also called Construct V20
# B6: FcTregV1 (other)
# chain: DKTHTCPPCPAPELLGGPSVFLFPPKPKDTLMISRTPEVTCVVVDVSHEDPEVKFNWYVDGVEVHNAKTKPREEQYQSTYRVVSVLTVLHQDWLNGKEYKCKVSNKALPAPIEKTISKAKGTDFTLTISSLQPEDDELTKNQVSLTCLVKGFYPSDIAVEWESNGQPENNYKTTPPVLDSDGSFFLYSKLTVDKSRWQQGNVFSCSVMHEALHNHYTQKSLSLSPGKLNNFYPREAKVQWKVDNALQSGNS
# notes: Tregitope carrying polypeptide (TCP) built on the human IgG1 Fc-part: Treg289 in frame A, Treg084 in frame C, Treg134 C-terminal; also called Construct V1
# B7: FcTregV14 (other)
# chain: B6 chain with Q77N
# notes: TCP on the human IgG1 Fc-part: Treg084 in frame C, Treg134 C-terminal; also called Construct V14
# Molecular target: the molecule itself
# Experiment: dimer formation of the expressed construct (self-association), Western blot of transfected cells
row,Protein,binding result
1,B1,binds
2,B2,binds
3,B3,binds
4,B4,binds
5,B5,binds
6,B6,binds
7,B7,binds

# Reference: patent US20230159610A1 (BIOTEST, published 2023)
